Data on eleven molecules can be found in patent publication US20190352387A1 (Chugai, published 2019).

Assay [1] deals with T1, Recombinant cynomolgus monkey sclerostin (cynomolgus monkey, UniProt Q9BG78 24-213 (Chlorocebus aethiops entry)).
T1 construct: Whole entry as named; expressed and purified as the human counterpart; also called cyno-SOST; cyno SOST
T1 chain: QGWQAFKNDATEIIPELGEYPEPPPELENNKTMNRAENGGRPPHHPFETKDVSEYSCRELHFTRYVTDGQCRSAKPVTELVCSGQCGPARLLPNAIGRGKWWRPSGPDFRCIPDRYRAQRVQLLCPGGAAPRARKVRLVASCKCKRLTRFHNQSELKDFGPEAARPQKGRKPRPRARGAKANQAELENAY
The assay can be described thus: SPR (Biacore), dissociation at pH 7.4. A general note: Surface plasmon resonance follows binding to a sensor surface in real time, without labels.
Procedure: (§1) The affinity of anti-sclerostin variants binding to human, cynomolgus monkey (cyno), rat, or mouse sclerostin at pH 7.4 and pH 5.8 were determined at 37 degrees C. using Biacore T200 instrument (GE Healthcare). Anti-human Fc (GE Healthcare) was immobilized onto all flow cells of a CM4 sensor chip using amine coupling kit (GE Healthcare). All antibodies and analytes were prepared in ACES pH7.4 or pH 5.8 buffer containing 20 mM ACES, 150 mM NaCl, 1.2 mM CaCl₂, 0.05% Tween 20, 0.005% NaN₃. Each antibody was captured onto the sensor surface by anti-human Fc. […] Sensor surface was regenerated each cycle with 3M MgCl₂.

Assay [2] deals with T2, Recombinant mouse sclerostin (mouse, UniProt Q99P68 24-211).
T2 sequence: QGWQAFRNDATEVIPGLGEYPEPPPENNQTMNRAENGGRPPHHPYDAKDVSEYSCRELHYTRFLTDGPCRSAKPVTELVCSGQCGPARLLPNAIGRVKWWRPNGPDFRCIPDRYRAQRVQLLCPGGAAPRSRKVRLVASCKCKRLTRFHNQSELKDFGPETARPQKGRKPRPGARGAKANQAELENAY
Briefly: cell-based or functional assay.

For another assay, the target named is T3, Mouse Fc gamma RIIB (mouse, UniProt P08101 30-210, limits assumed).
T3 sequence (looked up): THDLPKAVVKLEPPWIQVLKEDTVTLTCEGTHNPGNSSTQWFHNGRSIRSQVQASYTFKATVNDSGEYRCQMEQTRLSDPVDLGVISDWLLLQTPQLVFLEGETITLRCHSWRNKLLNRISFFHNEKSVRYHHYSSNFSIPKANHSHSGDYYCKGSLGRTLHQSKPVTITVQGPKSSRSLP
Briefly: SPR (Biacore T200), pH 7.4, 25 degrees C; mouse Fc gamma RIIB captured by anti-Histidine antibody; antibody injected at 100 nM alone or as 1:1 immune complex with human sclerostin.

The target of assay [3] is T4, Recombinant human sclerostin (human, UniProt Q9BQB4 24-213).
T4 construct: Whole entry as named; Secreted recombinant protein purified from FreeStyle293-F conditioned medium; also called human-SOST; Human SOST
T4 sequence: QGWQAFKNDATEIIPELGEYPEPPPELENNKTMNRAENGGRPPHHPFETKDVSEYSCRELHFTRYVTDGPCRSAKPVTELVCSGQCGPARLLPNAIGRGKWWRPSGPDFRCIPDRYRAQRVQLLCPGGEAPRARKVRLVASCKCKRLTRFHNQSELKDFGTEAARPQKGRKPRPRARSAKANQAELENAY
The assay can be described thus: SPR; captured antibody, recombinant human SOST as analyte; response normalised by the capture level of the antibody [panel abL081].

In assay [4] the target is T4, Recombinant human sclerostin. Briefly: SPR (Biacore), dissociation at pH 7.4.
Procedure: as §1
The target is the same in assay [5]. Briefly: SPR; captured antibody (SG1/SK1 constant regions), recombinant human SOST as analyte; response normalised by the capture level of the antibody [panel B-A-B].
Assay [6] has the same target. Briefly: SPR; captured antibody (SG1/SK1 constant regions), recombinant human SOST as analyte; response normalised by the capture level of the antibody [panel mabAL].
For assay [7] the target is unchanged. The assay can be described thus: SPR; captured antibody, recombinant human SOST as analyte; response normalised by the capture level of the antibody [panel abL063].
For assay [8] the target is unchanged. Briefly: SPR; captured antibody (SG1/SK1 constant regions), recombinant human SOST as analyte; response normalised by the capture level of the antibody [panel B-B-A].
The target is the same in assay [9]. The assay can be described thus: SPR; captured antibody, recombinant human SOST as analyte; response normalised by the capture level of the antibody [panel abL083].
The target is the same in assay [10]. Briefly: SPR; captured antibody (SG1/SK1 constant regions), recombinant human SOST as analyte; response normalised by the capture level of the antibody [panel A-B-B].
Assay [11] shares this target. The assay can be described thus: SPR; captured antibody (SG1/SK1 constant regions), recombinant human SOST as analyte; response normalised by the capture level of the antibody [panel mabBL].

Procedure for Mouse Fc gamma RIIB: The binding of anti-sclerostin antibodies/sclerostin immune complex towards mouse Fc gamma RIIB at pH 7.4 were determined at 25 degrees C. using Biacore T200 instrument (GE Healthcare). All antibodies and mouse Fc gamma RIIB were prepared in ACES pH 7.4 containing 20 mM ACES, 250 mM NaCl, 1.2 mM CaCl₂, 0.05% Tween 20, 1 mg/ml BSA, 1 mg/ml carboxymethyl dextran (CMD), 0.005% NaN₃. Anti-Histidine antibody (GE Healthcare) was immobilized onto all flow cells of a CM4 sensor chip using amine coupling kit (GE Healthcare). Mouse Fc gamma RIIB was captured on flow cell 2 by anti-Histidine antibody with flow cell 1 as reference flow cell. Mouse Fc gamma RIIB capture levels were aimed at 400 resonance unit (RU). All antibodies were injected at 100 nM over all flow cells. Immune complexes were prepared by mixing 1:1 molar ratio of antibody and human sclerostin and incubated at room temperature for one hour. Sensor surface was regenerated each cycle with 10 mM Glycine-HCl, pH1.5.

B1: amH852/abL152 (antibody, V domains shown)
VH: EVQLVQSGAEVKKPGASVKVSCKASGYTFTDYNMHWVRQAPGKGLEWMGEIMPHSGRYGLKQKFKGRVTMTTDTSTSTAYMELRSLRSDDTAVYYCARLEYSEIYDDWYFDVWGQGTTVTVSS
VL: DIQMTQSPSSLSASVGDRVTITCRASEGIHDALAWYQQKPGKAPKLLIYWASTLESGVPSRFSGSGSGTDFTLTISSLQPEDFATYYCQQGDTLPYTFGGGTKVEIK
notes: Homodimeric antibody
For orientation: koff means the rate constant with which the complex falls apart. With B1, the koff in assay [1] was found to be 0.0019 s⁻¹.

B2: mabB//mabA-BS01 (bispecific antibody, human IgG1, kappa)
heavy 1: QVQLVQSGAEVKKPGASVKVSCKVSGFPIKDTFQHWVRQAPGKGLEWMGWSDPEIGDTEYASKFQGRVTMTEDTSTDTAYMELSSLRSEDTAVYYCATGDTTYKFDFWGQGTTVTVSSASTKGPSVFPLAPSSRSTSESTAALGCLVKDYFPEPVTVSWNSGALTSGVHTFPAVLQSSGLYSLSSVVTVPSSSLGTKTYTCNVDHKPSNTKVDKRVEPKSCDKTHTCPPCPAPELLGGPSVFLFPPKPKDTLMISRTPEVTCVVVDVSQEDPEVQFNWYVDGVEVHNAKTKPREEQFNSTYRVVSVLTVLHQDWLNGKEYKCKVSNKGLPSSIEKTISKAKGQPREPQVYTLPPSREEMTKNQVSLTCLVKGFYPSDIAVEWESNGQPENNYKTTPPYLDSDGSFFLYSKLTVDKSRWQQGNVFSCSVMHEALHNHYTQESLSLSP
light 1: DIQMTQSPSSLSASVGDRVTITCKASQDVHTAVAWYQQKPGKAPKLLIYWASTRWTGVPSRFSGSGSGTDFTLTISSLQPEDFATYYCQQYSDYPWTFGGGTKVEIKRTVAAPSVFIFPPSDEQLKSGTASVVCLLNNFYPREAKVQWKVDNALQSGNSQESVTEQDSKDSTYSLSSTLTLSKADYEKHKVYACEVTHQGLSSPVTKSFNRGEC
heavy 2: EVQLVQSGAEVKKPGASVKVSCKASGYTFTDYNMHWVRQAPGQGLEWMGEINPNSGGAGYNQKFKGRVTMTTDTSTSTAYMELRSLRSDDTAVYYCARLGYDDIYDDWYFDVWGQGTTVTVSSASTKGPSVFPLAPSSRSTSESTAALGCLVKDYFPEPVTVSWNSGALTSGVHTFPAVLQSSGLYSLSSVVTVPSSSLGTKTYTCNVDHKPSNTKVDKRVEPKSCDKTHTCPPCPAPELLGGPSVFLFPPKPKDTLMISRTPEVTCVVVDVSQEDPEVQFNWYVDGVEVHNAKTKPREEQFNSTYRVVSVLTVLHQDWLNGKEYKCKVSNKGLPSSIEKTISKAKGQPREPQVYTLPPSRKEMTKNQVSLTCLVKGFYPSDIAVEWESNGQPENNYKTTPPYLDSDGSFFLYSKLTVDKSRWQQGNVFSCSVMHEALHNHYTQKSLSLSP
light 2: not shown
For the molecule B2, the “IC50 (read off the curve); Wnt1-induced TCF/LEF luciferase reporter in HEK293T cells, % Inhibition of mouse SOST” value in [2] is ~7 µg/mL. Moreover, the binding result with Mouse Fc gamma RIIB is listed as “binds”.

B3: mabB heavy chain combined with light chain variant abL081 (antibody, human IgG1, kappa, V domains shown)
VH: QVQLVQSGAEVKKPGASVKVSCKVSGFPIKDTFQHWVRQAPGKGLEWMGWSDPEIGDTEYASKFQGRVTMTEDTSTDTAYMELSSLRSEDTAVYYCATGDTTYKFDFWGQGTTVTVSS
VL: DIQMTQSPSSLSASVGDRVTITCRASQDIHTYLAWYQQKPGKAPKLLIYWASTRWSGVPSRFSGSGSGTDFTLTISSLQPEDFATYYCQQGDTLPYTFGGGTKVEIKR
notes: also called abL081 with the mabB heavy chain
Take B3: the binding result in [3] is “binds”.

B4: bsH638/abL152 (antibody, V domains shown)
VH: QVQLVQSGAEVKKPGASVKVSCKVSGYTLTHTFMHWVRQAPGKGLEWMGWSDPEIGDHEYASKFQGRVTMTEDTSTDTAYMELSSLRSEDTAVYYCATGDTTYKFDYWGQGTLVTVSS
VL: DIQMTQSPSSLSASVGDRVTITCRASEGIHDALAWYQQKPGKAPKLLIYWASTLESGVPSRFSGSGSGTDFTLTISSLQPEDFATYYCQQGDTLPYTFGGGTKVEIK
notes: Homodimeric antibody
Consider B4, for which, in assay [4], the koff was determined as 0.0093 s⁻¹.

B5: mabB heavy chain combined with light chain variant B-A-B (antibody, human IgG1, kappa, V domains shown)
VH: QVQLVQSGAEVKKPGASVKVSCKVSGFPIKDTFQHWVRQAPGKGLEWMGWSDPEIGDTEYASKFQGRVTMTEDTSTDTAYMELSSLRSEDTAVYYCATGDTTYKFDFWGQGTTVTVSS
VL: DIQMTQSPSSLSASVGDRVTITCKASQDVHTAVAWYQQKPGKAPKLLIYYTSRLLSGVPSRFSGSGSGTDFTLTISSLQPEDFATYYCQQYSDYPWTFGGGTKVEIKR
notes: also called B-A-B with the mabB heavy chain
Take B5: the binding result in assay [5] was “binds”.

B6: mabB heavy chain combined with the mabA light chain (mabAL) (antibody, human IgG1, kappa, V domains shown)
VH: QVQLVQSGAEVKKPGASVKVSCKVSGFPIKDTFQHWVRQAPGKGLEWMGWSDPEIGDTEYASKFQGRVTMTEDTSTDTAYMELSSLRSEDTAVYYCATGDTTYKFDFWGQGTTVTVSS
VL: DIQMTQSPSSLSASVGDRVTITCRASQDISNYLNWYQQKPGKAPKLLIYYTSRLLSGVPSRFSGSGSGTDFTLTISSLQPEDFATYYCQQGDTLPYTFGGGTKVEIKR
notes: also called mabAL with the mabB heavy chain; Light chain A with the mabB heavy chain
B6: the binding result in assay [6] is given as “no binding”.

B7: mabB heavy chain combined with light chain variant abL063 (antibody, human IgG1, kappa, V domains shown)
VH: QVQLVQSGAEVKKPGASVKVSCKVSGFPIKDTFQHWVRQAPGKGLEWMGWSDPEIGDTEYASKFQGRVTMTEDTSTDTAYMELSSLRSEDTAVYYCATGDTTYKFDFWGQGTTVTVSS
VL: DIQMTQSPSSLSASVGDRVTITCRASQDISTALAWYQQKPGKAPKLLIYWASTLWSGVPSRFSGSGSGTDFTLTISSLQPEDFATYYCQQGDTLPYTFGGGTKVEIKR
notes: also called abL063 with the mabB heavy chain
B7: in [7], the binding result is given as “binds”.

B8: mabB heavy chain combined with light chain variant B-B-A (antibody, human IgG1, kappa, V domains shown)
VH: QVQLVQSGAEVKKPGASVKVSCKVSGFPIKDTFQHWVRQAPGKGLEWMGWSDPEIGDTEYASKFQGRVTMTEDTSTDTAYMELSSLRSEDTAVYYCATGDTTYKFDFWGQGTTVTVSS
VL: DIQMTQSPSSLSASVGDRVTITCKASQDVHTAVAWYQQKPGKAPKLLIYWASTRWTGVPSRFSGSGSGTDFTLTISSLQPEDFATYYCQQGDTLPYTFGGGTKVEIKR
notes: also called B-B-A with the mabB heavy chain
In the case of B8, the binding result in [8] is “binds”.

B9: mabB heavy chain combined with light chain variant abL083 (antibody, human IgG1, kappa, V domains shown)
VH: QVQLVQSGAEVKKPGASVKVSCKVSGFPIKDTFQHWVRQAPGKGLEWMGWSDPEIGDTEYASKFQGRVTMTEDTSTDTAYMELSSLRSEDTAVYYCATGDTTYKFDFWGQGTTVTVSS
VL: DIQMTQSPSSLSASVGDRVTITCRASQDIHTYLAWYQQKPGKAPKLLIYWASTRLSGVPSRFSGSGSGTDFTLTISSLQPEDFATYYCQQGDTLPYTFGGGTKVEIKR
notes: also called abL083 with the mabB heavy chain
B9: the binding result in [9] is recorded as “binds”.

B10: mabB heavy chain combined with light chain variant A-B-B (antibody, human IgG1, kappa, V domains shown)
VH: QVQLVQSGAEVKKPGASVKVSCKVSGFPIKDTFQHWVRQAPGKGLEWMGWSDPEIGDTEYASKFQGRVTMTEDTSTDTAYMELSSLRSEDTAVYYCATGDTTYKFDFWGQGTTVTVSS
VL: DIQMTQSPSSLSASVGDRVTITCRASQDISNYLNWYQQKPGKAPKLLIYWASTRWTGVPSRFSGSGSGTDFTLTISSLQPEDFATYYCQQYSDYPWTFGGGTKVEIKR
notes: also called A-B-B with the mabB heavy chain
For the molecule B10, the binding result in [10] was “binds”.

B11: mabA heavy chain combined with the mabB light chain (mabBL) (antibody, human IgG1, kappa, V domains shown)
VH: EVQLVQSGAEVKKPGASVKVSCKASGYTFTDYNMHWVRQAPGQGLEWMGEINPNSGGAGYNQKFKGRVTMTTDTSTSTAYMELRSLRSDDTAVYYCARLGYDDIYDDWYFDVWGQGTTVTVSS
VL: DIQMTQSPSSLSASVGDRVTITCKASQDVHTAVAWYQQKPGKAPKLLIYWASTRWTGVPSRFSGSGSGTDFTLTISSLQPEDFATYYCQQYSDYPWTFGGGTKVEIKR
notes: also called mabBL with the mabA heavy chain; Light chain B with the mabA heavy chain
For B11, in assay [11], the binding result is on record as “no binding”.
